The series addresses T1, HA-tagged VDR (vitamin D receptor), wild type (UniProt P11473).
T1 sequence: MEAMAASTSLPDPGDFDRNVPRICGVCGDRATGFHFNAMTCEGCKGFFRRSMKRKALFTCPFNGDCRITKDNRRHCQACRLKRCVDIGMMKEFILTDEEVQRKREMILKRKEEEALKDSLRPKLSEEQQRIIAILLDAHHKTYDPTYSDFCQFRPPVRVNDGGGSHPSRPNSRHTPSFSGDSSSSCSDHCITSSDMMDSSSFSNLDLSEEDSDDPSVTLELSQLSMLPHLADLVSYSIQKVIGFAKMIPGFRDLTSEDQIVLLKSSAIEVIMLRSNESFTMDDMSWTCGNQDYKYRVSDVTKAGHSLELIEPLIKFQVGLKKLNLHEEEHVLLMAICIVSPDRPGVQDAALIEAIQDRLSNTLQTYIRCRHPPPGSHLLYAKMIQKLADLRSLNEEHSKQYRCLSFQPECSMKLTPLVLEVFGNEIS

In the case of enzymatically dead PCAF (D608A), the VDR acetylation entry is given as “but not with the enzymatically dead PCAF D608A mutant”.

Source of the values: patent publication US20200129532.
